What was measured:
[1] = molecular target: T1, human Orai1 (human, UniProt Q96D31 1-301); assay: cell-based or functional assay
[2] = molecular target: T1, human Orai1; assay: flow cytometry, pcDNA3.1-hOrai1 transfected HEK293T cells

T1 sequence (Q96D31 whole entry): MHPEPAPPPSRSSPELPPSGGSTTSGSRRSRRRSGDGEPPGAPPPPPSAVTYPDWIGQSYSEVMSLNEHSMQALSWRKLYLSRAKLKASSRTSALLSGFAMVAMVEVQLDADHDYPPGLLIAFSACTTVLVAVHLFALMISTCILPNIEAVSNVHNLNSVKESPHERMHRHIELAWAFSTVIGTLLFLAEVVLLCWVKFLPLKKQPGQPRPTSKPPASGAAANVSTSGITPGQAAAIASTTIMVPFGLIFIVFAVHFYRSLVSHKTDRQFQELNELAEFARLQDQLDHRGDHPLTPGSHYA

Row | Binder | IC50, IFN-γ release from human PBMC treated with PMA and A23187 [1] [µg/mL] | IC50, IL-2 release from Jurkat cells treated with PMA and A23187 [1] [µg/mL] | IC50, IL-2 release from human PBMC treated with PMA and A23187 [1] [µg/mL] | IC80, IFN-γ release from human PBMC treated with PMA and A23187 [1] [µg/mL] | IC80, IL-2 release from Jurkat cells treated with PMA and A23187 [1] [µg/mL] | IC80, IL-2 release from human PBMC treated with PMA and A23187 [1] [µg/mL] | binding result [2]
1 | mouse anti-human Orai1 antibody 10F8 (antibody, mouse IgG1, kappa, V domains shown) VH: QVQLQQSGAELVRPGSSVKISCKASGYAFRSYWMNWVKQRPGQGLEWIGHIYPGDGDTNYNGKFKGKATLTADKSSSTAYMQLSSLTSEDSAVYLCGRGGTTVVVDYWGQGTTLTVSS VL: DIVMSQSPSSLAVSAGEKVTMSCKSSQSLLNSRTRKNYLAWYQQKPGQSPKLLIYWASTRESGVPDRFTGSGSGTDFTLTISSVQAEDLAVYYCKQSYNLPWTFGGGTKLEIKR | ≥ 0.8 | ≥ 0.08 | ≥ 0.1 | ≥ 300 | ≥ 60 | ≥ 17 | –
2 | parent antibody Fab hR198_H4/L4-Fab (Fab, V domains shown, Fab of hR198_H4/L4) VH: QVQLVQSGAEVKKPGASVKVSCKASGYPVTAYYISWIRQAPGQGLEYVGYIDMGNGRTNYNARFKGRATLTVDKSTSTAYMELSSLRSEDTAVYYCARDSNWGVDYWGQGTLVTVSS VL: DIQLTQSPSSLSASVGDRVTITCRASQSIGNSLSWFQQKPGKAVKRLIYSTSTLESGVPSRFSGSGSGTDYTLTISSLQPEDFAMYYCLQFATFPDTFGQGTKVEI | – | – | – | – | – | – | binds
3 | mouse anti-human Orai1 antibody 14F74 (antibody, mouse IgG1, kappa, V domains shown) VH: QVQLQQSGAELVRPGSSVKISCKASGYAFSSYWMNWVKQRPGQGLEWIGHIYPGDGDTNYNGKFKGKATLTADKSSSTAYMQLSGLTSEDSAVYFCARSGRLRFAMDYWGQGTSVTVSS VL: DIVMSQSPSSLAVSAGEKVTMSCKSSQSLLNSRTRKNYLAWYQQKPGQSPKLLIYWASTRESGVPDRFTGSGSGTDFTLTISSVQAEDLAVYYCKQSYNLRTFGGGTKLEIQR | ≥ 0.8 | ≥ 0.08 | ≥ 0.1 | ≥ 300 | ≥ 60 | ≥ 17 | –
4 | mouse anti-human Orai1 antibody 17F6 (antibody, mouse IgG1, kappa, V domains shown) VH: QVQLQQSGAELVRPGSSVKISCKASGYAFSSYWMNWVKQRPGQGLEWIGHIYPGDADTNYNGKFKGKATLTADKSSSTAYMHLSSLTSEDSAVYFCSRQLGFRYAMDYWGQGTSVTVSS VL: DIVMSQSPSSLAVSAGEKVTMSCKSSQSLLNSRTRKNYLAWYQQKPGQSPKLLIYWASTRESGVPDRFTGSGSGTDFTLTISSVQAEDLAVYYCKQSYNLRTFGGGTKLEIKR | ≥ 0.8 | ≥ 0.08 | ≥ 0.1 | ≥ 300 | ≥ 60 | ≥ 17 | –
5 | affinity maturation antibody hR198_HG1/LG1 (antibody, human IgG1, kappa) heavy: not shown light: DIQLTQSPSSLSASVGDRVTITCRASQSIGGSLSWFQQKPGKAPKRLIYSTSTLESGVPSRFSGSGSGTDYTLTISSLQPEDFAMYYCLQFAIFPDSFGQGTKVEIKRTVAAPSVFIFPPSDEQLKSGTASVVCLLNNFYPREAKVQWKVDNALQSGNSQESVTEQDSKDSTYSLSSTLTLSKADYEKHKVYACEVTHQGLSSPVTKSFNRGEC | ≤ 0.04 | ≤ 0.01 | ≤ 0.02 | ≤ 2 | ≤ 0.2 | ≤ 0.4 | –
6 | humanized anti-human Orai1 antibody hR198_H4/L4 (antibody, human IgG1, kappa, V domains shown, Human IgG1 / kappa; also called hH4/L4) VH: QVQLVQSGAEVKKPGASVKVSCKASGYPVTAYYISWIRQAPGQGLEYVGYIDMGNGRTNYNARFKGRATLTVDKSTSTAYMELSSLRSEDTAVYYCARDSNWGVDYWGQGTLVTVSS VL: DIQLTQSPSSLSASVGDRVTITCRASQSIGNSLSWFQQKPGKAVKRLIYSTSTLESGVPSRFSGSGSGTDYTLTISSLQPEDFAMYYCLQFATFPDTFGQGTKVEIKR | – | – | – | – | – | – | binds
7 | hR198_HG1-LALA/LG1 (antibody, human IgG1, kappa, L234A L235A) heavy: not shown light: DIQLTQSPSSLSASVGDRVTITCRASQSIGGSLSWFQQKPGKAPKRLIYSTSTLESGVPSRFSGSGSGTDYTLTISSLQPEDFAMYYCLQFAIFPDSFGQGTKVEIKRTVAAPSVFIFPPSDEQLKSGTASVVCLLNNFYPREAKVQWKVDNALQSGNSQESVTEQDSKDSTYSLSSTLTLSKADYEKHKVYACEVTHQGLSSPVTKSFNRGEC | ≤ 0.04 | ≤ 0.01 | ≤ 0.02 | ≤ 2 | ≤ 0.2 | ≤ 0.4 | –
8 | human anti-human Orai1 antibody 5H3.1 (antibody, human IgG2, lambda, V domains shown) VH: QVQLVQSGAEVKKPGASVKVSCKASGYTFTDYYMNWVRQAPGQGLEWMGWINPNSGGTKYAQKFQGRVTMTRDTSIRTAYMELSRLRSDDTAVYYCAREYGGNSDWFDPWGQGTLVTVSS VL: QSVLTQPPSVSGAPGQRVTISCTGSSSNIGAGYDVHWYQQLPGTAPKLLIYGNSNRPSGVPDRFSGSKSGTSASLAITGLQAEDEADYYCQSYDNRLSDSVVIGGGTKLAVQG | ≥ 0.8 | ≥ 0.08 | ≥ 0.1 | ≥ 300 | ≥ 60 | ≥ 17 | –
9 | human anti-human Orai1 antibody 2C1.1 (antibody, human IgG2, lambda, V domains shown) VH: QVQLQQWGAGLLKPSETLSLTCAVYGGSFSGYYWSWIRQPPGKGLEWIGEIDHSGSTNYNPALKSRLTISVDTSKNQFSLKLSSVTAADTAVYYCARAGSGGYEDWFDPWGQGTLVTVSS VL: QSVLTQPPSVSGAPGQRVTISCTGSSSNIGAGYNVHWYQQFPRTDPKLLIYVYNIRPSGVPDRFSGSRSGTSASLAITGLQTEDEADYYCQSYDSSLSGVVFGGGTKLTVLG | ≥ 0.8 | ≥ 0.08 | ≥ 0.1 | ≥ 300 | ≥ 60 | ≥ 17 | –
